Test results as given in PMC5657598.

Target: Get1/2 heterodimer, cytosolically labeled (Get1-S77C-Cy5 and Get2-S28C-Cy3) (yeast) (UniProt P53192)
Assay: FRET or BRET

- Kd: < 1 nM
- stoichiometry N (Get3 homodimer per Get1/2 heterodimer): 1
B1: Get3-D57N (enzyme)
chain: MDLTVEPNLHSLITSTTHKWIFVGGKGGVGKTTSSCSIAIQMALSQPNKQFLLISTNPAHNLSDAFGEKFGKDARKVTGMNNLSCMEIDPSAALKDMNDMAVSRANNNGSDGQGDDLGSLLQGGALADLTGSIPGIDEALSFMEVMKHIKRQEQGEGETFDTVIFDTAPTGHTLRFLQLPNTLSKLLEKFGEITNKLGPMLNSFMGAGNVDISGKLNELKANVETIRQQFTDPDLTTFVCVCISEFLSLYETERLIQELISYDMDVNSIIVNQLLFAENDQEHNCKRCQARWKMQKKYLDQIDELYEDFHVVKMPLCAGEIRGLNNLTKFSQFLNKEYNPITDGKVIYELEDKE
